Reference: patent US20140017212

Legend:
Test in all cases: cell_activity
ZFN SBS34931 = conditions: HepG2-C3a, paired with 33940
TALEN 102256 = test system: TALEN 102256
TALEN 102255 = test system: TALEN 102255
TALEN 102265 = test system: TALEN 102265
TALEN 102266 = conditions: C17, with 102268, HepG2-C3a
TALEN 102252 = test system: TALEN 102252
TALEN 102268 = test system: TALEN 102268
TALEN 102267 = test system: TALEN 102267
TALEN 102264 = conditions: C63, with 102261, HepG2-C3a
TALEN 102253 = test system: TALEN 102253
TALEN 102254 = test system: TALEN 102254
TALEN 102259 = test system: TALEN 102259
TALEN 102262 = conditions: C63, with 102264, HepG2-C3a
ZFN SBS35393 = conditions: Cel-I, paired with 35370
ZFN SBS35394 = conditions: Cel-I, paired with 35364
ZFN SBS35396 = conditions: Cel-I, paired with 35361; 31 and 29% in HepG2-C3a (Table 10)
ZFN SBS35398 = conditions: Cel-I, paired with 35361
ZFN SBS35399 = conditions: Cel-I, paired with 35361
ZFN SBS35405 = conditions: Cel-I, paired with 35370
ZFN SBS35458 = conditions: Cel-I, paired with 35428; 10 and 7% with 35426 in HepG2-C3a (Table 10)
ZFN SBS35480 = conditions: Cel-I, paired with 35426
TALEN 102263 = conditions: C63, with 102261, HepG2-C3a
TALEN 102257 = test system: TALEN 102257
TALEN 102258 = test system: TALEN 102258
TALEN 102260 = test system: TALEN 102260
ZFN SBS33940 = conditions: HepG2-C3a, paired with 34931
TALEN 102251 = conditions: C17, with 102249, HepG2-C3a
TALEN 102249 = test system: TALEN 102249
TALEN 102250 = test system: TALEN 102250
TALEN 102271 = conditions: C17, with 102269, HepG2-C3a
TALEN 102261 = conditions: C63, with 102264, HepG2-C3a
ZFN SBS35426 = conditions: Cel-I, paired with 35480
ZFN SBS35428 = conditions: Cel-I, paired with 35480
ZFN SBS35361 = conditions: Cel-I, paired with 35396; 31 and 29% in HepG2-C3a (Table 10)
ZFN SBS35364 = conditions: Cel-I, paired with 35394
ZFN SBS35370 = conditions: Cel-I, paired with 35405
ZFN SBS35379 = conditions: Cel-I, paired with 35393
TALEN 102269 = conditions: C17, with 102271, HepG2-C3a

Sequence: ACCAAGAAGACAGACTAAAATGAAAATA (double strand) [34931 site]
- activity (% modification) (ZFN SBS34931): 7.3

Sequence: ATAAAGCATAGTGCAATGG (double strand) [102256 site]
- activity (% modification) (TALEN 102256; C17, with 102254, HepG2-C3a): 28
- activity (% modification) (TALEN 102256; C63, with 102253, HepG2-C3a): 23

Sequence: ATAAAGCATAGTGCAATGGAT (double strand) [102255 site]
- activity (% modification) (TALEN 102255; C17, with 102254, HepG2-C3a): 43
- activity (% modification) (TALEN 102255; C63, with 102253, HepG2-C3a): 21

Sequence: ATAATTGAACATCATCCTG (double strand) [102265 site]
- activity (% modification) (TALEN 102265; C17, with 102267, HepG2-C3a): 47
- activity (% modification) (TALEN 102265; C63, with 102267, HepG2-C3a): 9.8

Sequence: ATAATTGAACATCATCCTGAG (double strand) [102266 site]
- activity (% modification) (TALEN 102266): 10

Sequence: ATAGTGCAATGGATAGGTC (double strand) [102252 site]
- activity (% modification) (TALEN 102252; C17, with 102250, HepG2-C3a): 32
- activity (% modification) (TALEN 102252; C63, with 102249, HepG2-C3a): 8.3

Sequence: ATATTGGGCTCTGATTCCT (double strand) [102268 site]
- activity (% modification) (TALEN 102268; C17, with 102266, HepG2-C3a): 10
- activity (% modification) (TALEN 102268; C63, with 102265, HepG2-C3a): 7.9

Sequence: ATATTGGGCTCTGATTCCTAC (double strand) [102267 site]
- activity (% modification) (TALEN 102267; C17, with 102265, HepG2-C3a): 47
- activity (% modification) (TALEN 102267; C63, with 102265, HepG2-C3a): 9.8

Sequence: ATCTAATACTCTTTTAGTGTC (double strand) [102264 site]
- activity (% modification) (TALEN 102264): 22

Sequence: ATTGAATTCATAACTATCC (double strand) [102253 site]
- activity (% modification) (TALEN 102253; C17, with 102255, HepG2-C3a): 38
- activity (% modification) (TALEN 102253; C63, with 102256, HepG2-C3a): 23

Sequence: ATTGAATTCATAACTATCCCA (double strand) [102254 site]
- activity (% modification) (TALEN 102254; C17, with 102255, HepG2-C3a): 43
- activity (% modification) (TALEN 102254; C63, with 102256, HepG2-C3a): 16

Sequence: ATTTATGAGATCAACAGCACA (double strand) [102259 site]
- activity (% modification) (TALEN 102259; C17, with 102257, HepG2-C3a): 18
- activity (% modification) (TALEN 102259; C63, with 102257, HepG2-C3a): 15

Sequence: ATTTTAGTCTGTCTTCTTG (double strand) [102262 site]
- activity (% modification) (TALEN 102262): 17

Sequence: CCTATCCATTGCACTATGCTTTATTTAA (double strand) [locus 2 right site]
- activity (% mutated targets) (ZFN SBS35393): 21
- activity (% mutated targets) (ZFN SBS35394): 24
- activity (% mutated targets) (ZFN SBS35396): 25
- activity (% mutated targets) (ZFN SBS35398): 22
- activity (% mutated targets) (ZFN SBS35399): 23
- activity (% mutated targets) (ZFN SBS35405): 23

Sequence: CCTGTGCTGTTGATCTCATAAATAGAAC (double strand) [locus 3 right site]
- activity (% mutated targets) (ZFN SBS35458): 4.9
- activity (% mutated targets) (ZFN SBS35480): 7

Sequence: CTAATACTCTTTTAGTGTCT (double strand) [102263 site]
- activity (% modification) (TALEN 102263): 16

Sequence: CTATGCTTTATTTAAAAAC (double strand) [102257 site]
- activity (% modification) (TALEN 102257; C17, with 102259, HepG2-C3a): 18
- activity (% modification) (TALEN 102257; C63, with 102259, HepG2-C3a): 15

Sequence: CTATGCTTTATTTAAAAACCA (double strand) [102258 site]
- activity (% modification) (TALEN 102258; C17, with 102260, HepG2-C3a): 24
- activity (% modification) (TALEN 102258; C63, with 102260, HepG2-C3a): 11

Sequence: CTATTTATGAGATCAACAGCA (double strand) [102260 site]
- activity (% modification) (TALEN 102260; C17, with 102258, HepG2-C3a): 24
- activity (% modification) (TALEN 102260; C63, with 102257, HepG2-C3a): 13

Sequence: CTGTTGATAGACACTAAAAGAGTATTAG (double strand) [33940 site]
- activity (% modification) (ZFN SBS33940): 7.3

Sequence: GTGCAATGGATAGGTCTTT (double strand) [102251 site]
- activity (% modification) (TALEN 102251): 15

Sequence: GTTGAAGATTGAATTCATA (double strand) [102249 site]
- activity (% modification) (TALEN 102249; C17, with 102251, HepG2-C3a): 15
- activity (% modification) (TALEN 102249; C63, with 102252, HepG2-C3a): 8.3

Sequence: GTTGAAGATTGAATTCATAAC (double strand) [102250 site]
- activity (% modification) (TALEN 102250; C17, with 102252, HepG2-C3a): 32
- activity (% modification) (TALEN 102250; C63, with 102252, HepG2-C3a): 8

Sequence: TTATGCATTTGTTTCAAAA (double strand) [102271 site]
- activity (% modification) (TALEN 102271): 14

Sequence: TTCATTTTAGTCTGTCTTCTT (double strand) [102261 site]
- activity (% modification) (TALEN 102261): 22

Sequence: TTGTGGTTTTTAAATAAAGCATAGTGCA (double strand) [locus 3 left site]
- activity (% mutated targets) (ZFN SBS35426): 7
- activity (% mutated targets) (ZFN SBS35428): 6

Sequence: TTTGGGATAGTTATGAATTCAATCTTCA (double strand) [locus 2 left site]
- activity (% mutated targets) (ZFN SBS35361): 25
- activity (% mutated targets) (ZFN SBS35364): 24
- activity (% mutated targets) (ZFN SBS35370): 23
- activity (% mutated targets) (ZFN SBS35379): 21

Sequence: TTTTTCTGTAGGAATCAGA (double strand) [102269 site]
- activity (% modification) (TALEN 102269): 14
